Measured values published in patent publication US20220017635A1 (Kyowa Kirin, published 2022).

T1: monkey TfR on CHO cells (monkey)
T1 construct: also called monkey TfR/CHO cells
T1 chain: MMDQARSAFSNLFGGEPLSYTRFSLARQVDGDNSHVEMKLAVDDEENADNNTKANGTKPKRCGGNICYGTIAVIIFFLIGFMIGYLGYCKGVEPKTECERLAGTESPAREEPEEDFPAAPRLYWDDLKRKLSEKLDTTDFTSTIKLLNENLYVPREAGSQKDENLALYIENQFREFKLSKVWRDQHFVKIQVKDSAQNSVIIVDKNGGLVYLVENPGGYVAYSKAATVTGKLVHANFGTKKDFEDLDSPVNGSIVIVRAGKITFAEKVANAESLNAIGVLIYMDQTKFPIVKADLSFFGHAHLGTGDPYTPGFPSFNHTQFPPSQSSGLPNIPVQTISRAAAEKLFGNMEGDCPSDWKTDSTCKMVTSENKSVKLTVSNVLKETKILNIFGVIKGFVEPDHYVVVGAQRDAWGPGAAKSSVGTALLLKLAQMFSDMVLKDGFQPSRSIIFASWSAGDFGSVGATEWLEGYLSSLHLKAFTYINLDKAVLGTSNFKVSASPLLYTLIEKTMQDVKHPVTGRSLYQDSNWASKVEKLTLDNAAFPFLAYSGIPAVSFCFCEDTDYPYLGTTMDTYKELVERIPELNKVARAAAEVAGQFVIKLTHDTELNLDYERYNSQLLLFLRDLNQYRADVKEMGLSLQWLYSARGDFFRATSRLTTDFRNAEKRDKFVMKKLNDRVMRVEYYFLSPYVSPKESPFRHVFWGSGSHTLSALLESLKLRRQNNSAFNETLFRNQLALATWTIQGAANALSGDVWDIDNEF

T2: huTfR with mouse protease-like domain (human/mouse chimera)
T2 construct: His tag added; also called chimeric protein of human TfR extracellular domain with mouse protease-like domain
T2 chain: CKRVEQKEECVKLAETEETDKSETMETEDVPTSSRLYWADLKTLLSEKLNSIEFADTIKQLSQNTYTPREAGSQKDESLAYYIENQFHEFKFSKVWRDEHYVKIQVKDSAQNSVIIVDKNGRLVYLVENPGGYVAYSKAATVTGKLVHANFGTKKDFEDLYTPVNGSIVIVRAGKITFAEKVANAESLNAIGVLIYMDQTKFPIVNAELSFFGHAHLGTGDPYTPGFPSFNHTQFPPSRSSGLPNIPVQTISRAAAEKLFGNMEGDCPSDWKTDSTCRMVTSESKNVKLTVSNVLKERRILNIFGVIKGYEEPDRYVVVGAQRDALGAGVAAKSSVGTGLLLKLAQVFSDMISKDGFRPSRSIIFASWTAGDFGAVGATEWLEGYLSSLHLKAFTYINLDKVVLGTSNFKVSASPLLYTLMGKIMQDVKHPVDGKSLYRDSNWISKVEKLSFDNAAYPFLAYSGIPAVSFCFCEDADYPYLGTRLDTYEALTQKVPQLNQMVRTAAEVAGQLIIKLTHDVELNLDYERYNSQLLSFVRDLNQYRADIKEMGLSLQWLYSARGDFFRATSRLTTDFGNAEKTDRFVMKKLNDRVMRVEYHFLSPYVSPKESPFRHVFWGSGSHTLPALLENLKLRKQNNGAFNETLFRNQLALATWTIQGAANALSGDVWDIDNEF

T3: huTfR with mouse apical domain (human/mouse chimera, UniProt P02786 89-760)
T3 construct: His tag added; also called chimeric protein of human TfR extracellular domain with mouse apical domain
T3 chain: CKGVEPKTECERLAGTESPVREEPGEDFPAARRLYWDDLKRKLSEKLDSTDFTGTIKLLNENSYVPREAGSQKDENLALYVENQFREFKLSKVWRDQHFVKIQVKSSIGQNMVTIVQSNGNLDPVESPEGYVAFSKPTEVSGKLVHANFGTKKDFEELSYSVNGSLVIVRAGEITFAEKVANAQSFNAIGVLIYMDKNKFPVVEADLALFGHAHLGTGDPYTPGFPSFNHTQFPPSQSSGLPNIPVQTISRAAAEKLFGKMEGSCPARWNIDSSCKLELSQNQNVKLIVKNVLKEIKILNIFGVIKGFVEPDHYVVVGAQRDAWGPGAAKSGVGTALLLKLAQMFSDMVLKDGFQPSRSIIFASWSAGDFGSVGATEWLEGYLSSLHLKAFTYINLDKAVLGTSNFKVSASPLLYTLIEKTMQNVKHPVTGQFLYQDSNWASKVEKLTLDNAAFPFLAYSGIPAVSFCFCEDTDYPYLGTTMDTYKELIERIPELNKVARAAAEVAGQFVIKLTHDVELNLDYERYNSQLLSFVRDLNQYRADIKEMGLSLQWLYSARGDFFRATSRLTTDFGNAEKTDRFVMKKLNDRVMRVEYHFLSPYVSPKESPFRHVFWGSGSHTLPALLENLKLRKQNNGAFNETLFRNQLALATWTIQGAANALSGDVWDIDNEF

T4: chimeric TfR A02 (human/mouse chimera, UniProt P02786 89-760)
T4 construct: also called D352S-S355A-D356R-K358N
T4 chain: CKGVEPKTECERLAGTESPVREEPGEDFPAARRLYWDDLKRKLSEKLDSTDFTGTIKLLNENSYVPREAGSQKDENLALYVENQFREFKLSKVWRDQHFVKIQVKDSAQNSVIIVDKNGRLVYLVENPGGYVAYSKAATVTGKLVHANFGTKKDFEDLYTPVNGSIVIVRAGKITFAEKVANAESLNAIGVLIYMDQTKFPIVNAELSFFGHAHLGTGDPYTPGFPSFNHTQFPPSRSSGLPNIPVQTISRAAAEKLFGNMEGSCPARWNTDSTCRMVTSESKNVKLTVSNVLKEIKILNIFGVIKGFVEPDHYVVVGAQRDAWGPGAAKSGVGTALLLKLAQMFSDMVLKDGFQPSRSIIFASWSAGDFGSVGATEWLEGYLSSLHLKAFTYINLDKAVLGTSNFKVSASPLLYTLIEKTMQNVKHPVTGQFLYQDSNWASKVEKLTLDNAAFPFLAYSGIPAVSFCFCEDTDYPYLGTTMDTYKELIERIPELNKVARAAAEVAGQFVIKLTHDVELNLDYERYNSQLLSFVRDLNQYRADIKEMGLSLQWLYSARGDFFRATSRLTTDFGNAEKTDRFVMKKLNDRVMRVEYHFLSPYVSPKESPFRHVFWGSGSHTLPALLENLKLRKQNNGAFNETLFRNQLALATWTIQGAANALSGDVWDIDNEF


What was measured:
[1] = biological target: T1, monkey TfR on CHO cells; test: flow cytometry of monoclonal phage (scFv) on monkey TfR/CHO cells
Experimental: After the reaction was allowed to proceed under 4° C. for 30 minutes, each well was washed 3 times with PBS-T.

[2] = biological target: T5, mouse TfR on CHO cells (mouse, UniProt Q62351 1-763); test: flow cytometry on mouse TfR/CHO cells
T5 construct: also called mouse TfR/CHO
Experimental: Subsequently, an epitope analysis for various types of TfR antibodies was carried out.

[3] = biological target: T2, huTfR with mouse protease-like domain; test: ELISA on immobilized chimeric TfR; grade = binding relative to His-huTfR (++ 0.5 or more, + 0.2 to less than 0.5)
Experimental: (§1) ELISA was carried out by the following method. To a 96-well immunoplate (NUNC, Inc.) on which an antigen protein was immobilized, 1% (w/v) BSA-PBS(−) pH 7.0 without KCl (hereinafter referred to as blocking solution, Nacalai Tesque, Inc.) was added to perform blocking at room temperature, and thereafter, the anti-TfR antibody diluted with the same solution was added thereto and a reaction was allowed to proceed at room temperature for 1 hour. Thereafter, washing was performed with 0.05% (w/v)-tPBS (1×) without KCl (pH 7.2) (hereinafter referred to as washing solution, Nacalai Tesque, Inc.), Anti-Human IgG (Fc) Goat IgG Fab″-HRP (IBL, Inc.) diluted with the blocking solution was added thereto, and a reaction was allowed to proceed at room temperature for 1 hour. Thereafter, washing was performed with the washing solution, and 1-Step (registered trademark) Ultra TMB-ELISA Substrate Solution (Thermo, Inc.) was added thereto, and a reaction was allowed to proceed at room temperature. The coloring reaction was stopped by adding a 5 N HCl solution, and an absorbance at a wavelength of 450 nm (reference wavelength: 570 nm) was measured using a plate reader (EPOCH 2: BioTek Instruments, Inc.).
(§2) Further, a value obtained by subtracting the absorbance at the reference wavelength of 570 nm from the absorbance at a wavelength of 450 nm was regarded as the binding activity to any of various types of antigen proteins, and a case where a value obtained by dividing the binding activity to any of various types of chimeric TfR by the binding activity to His-huTfR was 0.5 or more was denoted by ++, a case where the value was 0.2 or more and less than 0.5 was denoted by +, and a case where the value was less than 0.2 was denoted by −.

[4] = biological target: T6, chimeric TfR A04 (human/mouse chimera, UniProt P02786 89-760); test: as above
T6 construct: also called D245E-K261E-D356R
Experimental: as §1, §2

[5] = biological target: T7, chimeric TfR A03 (human/mouse chimera, UniProt P02786 89-760); test: as above
T7 construct: also called D245E-K261E
Experimental: as §1, §2

[6] = biological target: T8, chimeric TfR A05 (human/mouse chimera, UniProt P02786 89-760); test: as above
T8 construct: also called P249S-L274F
Experimental: as §1, §2

[7] = biological target: T9, chimeric TfR A07 (human/mouse chimera, UniProt P02786 89-760); test: ELISA on immobilized chimeric TfR
T9 construct: also called M365L-V366E-E369Q
Experimental: as §1, §2

[8] = biological target: T3, huTfR with mouse apical domain; test: ELISA on immobilized chimeric TfR
Experimental: as §1, §2

[9] = biological target: T10, chimeric TfR A14 (human/mouse chimera, UniProt P02786 89-760); test: ELISA on immobilized chimeric TfR
T10 construct: also called D204Q-K205S-E369Q
Experimental: as §1, §2

[10] = biological target: T4, chimeric TfR A02; test: ELISA on immobilized chimeric TfR
Experimental: as §1, §2

[11] = biological target: T9, chimeric TfR A07; test: ELISA on immobilized chimeric TfR; grade = binding relative to His-huTfR (++ 0.5 or more, + 0.2 to less than 0.5)
Experimental: as §1, §2

[12] = biological target: T3, huTfR with mouse apical domain; test: as above
Experimental: as §1, §2

[13] = biological target: T10, chimeric TfR A14; test: as above
Experimental: as §1, §2

[14] = biological target: T4, chimeric TfR A02; test: as above
Experimental: as §1, §2

[15] = biological target: T2, huTfR with mouse protease-like domain; test: ELISA on immobilized chimeric TfR
Experimental: as §1, §2

[16] = biological target: T11, human EGFR-FLAG-Fc (human, UniProt P00533 25-638); test: phage ELISA on immobilized EGFR-Fc (Example 5)
T11 construct: also called human EGFR-Fc

[17] = biological target: T8, chimeric TfR A05; test: ELISA on immobilized chimeric TfR
Experimental: as §1, §2

| Binder | binding result [1] | binding result [2] | ratio of ELISA binding activity (A450-A570) to chimeric TfR over that to His-huTfR [3] [ratio] | ratio of ELISA binding activity (A450-A570) to chimeric TfR over that to His-huTfR [4] [ratio] | ratio of ELISA binding activity (A450-A570) to chimeric TfR over that to His-huTfR [5] [ratio] | ratio of ELISA binding activity (A450-A570) to chimeric TfR over that to His-huTfR [6] [ratio] | ratio of ELISA binding activity (A450-A570) to chimeric TfR over that to His-huTfR [7] [ratio] | ratio of ELISA binding activity (A450-A570) to chimeric TfR over that to His-huTfR [8] [ratio] | ratio of ELISA binding activity (A450-A570) to chimeric TfR over that to His-huTfR [9] [ratio] | ratio of ELISA binding activity (A450-A570) to chimeric TfR over that to His-huTfR [10] [ratio] | ratio of ELISA binding activity (A450-A570) to chimeric TfR over that to His-huTfR [11] [ratio] | ratio of ELISA binding activity (A450-A570) to chimeric TfR over that to His-huTfR [12] [ratio] | ratio of ELISA binding activity (A450-A570) to chimeric TfR over that to His-huTfR [13] [ratio] | ratio of ELISA binding activity (A450-A570) to chimeric TfR over that to His-huTfR [14] [ratio] | ratio of ELISA binding activity (A450-A570) to chimeric TfR over that to His-huTfR [15] [ratio] | binding result [16] | ratio of ELISA binding activity (A450-A570) to chimeric TfR over that to His-huTfR [17] [ratio] |
| --- | --- | --- | --- | --- | --- | --- | --- | --- | --- | --- | --- | --- | --- | --- | --- | --- | --- |
| cyno186 (antibody, V domains shown, also called anti-TfR antibody cyno186) VH: QVQLVESGGEFVQPGGSLRLSCAASGFPFKGYAMNWVRQAPGKGLEWVSRISNGGSYIDYADSVKGRFTISRDNSKNTLYLQIDSLRTEDTAVYYCAKAKDAYRWNNAIDEWGQGTLVTVSS VL: not shown | binds | no binding | ≥ 0.5 | 0.2 to 0.5 | ≥ 0.5 | ≥ 0.5 | < 0.2 | < 0.2 | < 0.2 | < 0.2 |  |  |  |  |  |  |  |
| 2230 (antibody, V domains shown, From a hybridoma; light chain other than A27; also called clone 2230; anti-TfR antibody 2230) VH: QVQLQESGPGLVKPSETLSLTCTVSGGSISSYYWSWIRQPPGKGLEWIGYIYYSGSTNYNPSLKSRVTISLDTSKNQFSLRLSSVTTADTALYYCTREAGYYDSSGYYGFDYWGQGTLVTVSS VL: DIQMTQSPSSLSASVGDRVTITCRASQGISSWLAWYQQKPEKAPKSLIYAASSLQSGVPSRFSGSGSGTDFTLTISSLQPEDFATYFCQQYYNYPYTFGQGTKLEIK |  | no binding |  | ≥ 0.5 | ≥ 0.5 | ≥ 0.5 |  |  |  |  | ≥ 0.5 | ≥ 0.5 | ≥ 0.5 | ≥ 0.5 | < 0.2 |  |  |
| KME11 (antibody, V domains shown, IgG4PE or IgG4PE R409K; also called anti-EGFR antibody KME11; KME1l) VH: QVQLVQSGAEVKKPGSSVKVSCKASGGTLSTYGITWVRQAPGQGFAWMGEIIPSLGIVNYAQKFQGRVTITADESTSTVYMELSSVTYEDTAVYYCAGDELSEGHSEYYHGMDVWGQGTTVTVSS VL: DIQMTQSPSSLSASVGDRVTITCRASQGISSWLAWYQQKPEKAPKSLIYAASSLQSGVPSRFSGSGSGTDFTLTISSLQPEDFATYFCQQYYNYPYTFGQGTKLEIK |  |  |  |  |  |  |  |  |  |  |  |  |  |  |  | binds |  |
| T14 (antibody, V domains shown, IgG4PE or IgG4PE R409K constant region; also called anti-TfR antibody T14) VH: EVQLVESGGGLVQPGGSLRLSCVVSGGTFSNFNMNWVRQAPGKGLEWVSYISGSSSTIYYADSVKGRFTISRDNAKNSLYLQMNSLRDEDTAVYYCVSSSWYYWGQGTLVTVSS VL: not shown |  |  | ≥ 0.5 | 0.2 to 0.5 | ≥ 0.5 |  |  | < 0.2 |  |  | ≥ 0.5 |  | ≥ 0.5 | ≥ 0.5 |  |  | < 0.2 |
